According to paper PMC3545058:

Columns and labels:
[1] = target: GST-EhGα1 (Entamoeba histolytica); test: SPR
[2] = target: EhRGS-RhoGEF (Entamoeba histolytica); test: SPR

Q: Which Kd [1] does the source give for EhRGS-RhoGEF (natural protein) here?
A: 5.7 µM

Q: With EhGα1 (natural protein) as the substance, how does the Kd [2] read?
A: 5.2 µM

Q: With “EhRacC(Q65L) (from UniProt Q24816 1-194) (natural protein)” as the substance, how does the Kd [2] read?
A: 34 µM

Q: Which Kd [2] does the source give for EhGα1(Q189L) (natural protein) here?
A: 110 µM
